The test in a line: Saturation mutagenesis of SEQ ID NO:109, dicamba decarboxylation activity of point mutants.
Setting [1] is: dicamba decarboxylation activity of point mutants of SEQ ID NO: 109 (NNK saturation mutagenesis), relative to the unchanged template.
Where [2] appears, read: dicamba decarboxylation activity of single point mutants of SEQ ID NO:109, relative to unchanged template.

These results are taken from patent US20140287419A1, “Compositions Having Dicamba Decarboxylase Activity and Methods of Use” (priority 2013, published 2014).

B1: N61G: point mutation N61G of SEQ ID NO:109 (protein)
chain: MAQGKVALEEHFAIPETLQDSAGFVPGDYWKELQHRLLDIQDTRLKLMDAHGIETMILSLGAPAVQAIPDRRKAIEIARRANDVLAEECAKRPDRFLAFAALPLQDPDAATEELQRCVNDLGFVGALVNGFSQEGDGQTPLYYDLPQYRPFWGEVEKLDVPFYLHPRNPLPQDSRIYDGHPWLLGPTWAFAQETAVHALRLMASGLFDEHPRLNIILGHMGEGLPYMMWRIDHRVAWVKLPPRYPAKRRFMDYFNENFHITTSGNFRTQTLIDAILEIGADRILFSTDWPFENIDHASDWFNATSIAEADRVKIGRTNARRLFKLDGA
modifications: Dicamba decarboxylase variant clone DC.4.032
For B1, the “Average Activity (Fold of SEQ ID NO: 109)” value under setting [1] is on record as 2.3 Fold of SEQ ID NO: 109.

B2: A64G: point mutation A64G of SEQ ID NO:109 (protein)
chain: MAQGKVALEEHFAIPETLQDSAGFVPGDYWKELQHRLLDIQDTRLKLMDAHGIETMILSLNAPGVQAIPDRRKAIEIARRANDVLAEECAKRPDRFLAFAALPLQDPDAATEELQRCVNDLGFVGALVNGFSQEGDGQTPLYYDLPQYRPFWGEVEKLDVPFYLHPRNPLPQDSRIYDGHPWLLGPTWAFAQETAVHALRLMASGLFDEHPRLNIILGHMGEGLPYMMWRIDHRVAWVKLPPRYPAKRRFMDYFNENFHITTSGNFRTQTLIDAILEIGADRILFSTDWPFENIDHASDWFNATSIAEADRVKIGRTNARRLFKLDGA
modifications: Dicamba decarboxylase variant clone DC.4.032
With B2, the “Average Activity (Fold of SEQ ID NO: 109)” value reads like this: under setting [1], 2.6 Fold of SEQ ID NO: 109; under setting [2], 2.6 Fold of SEQ ID NO: 109.

B3: A64S: point mutation A64S of SEQ ID NO:109 (protein)
chain: MAQGKVALEEHFAIPETLQDSAGFVPGDYWKELQHRLLDIQDTRLKLMDAHGIETMILSLNAPSVQAIPDRRKAIEIARRANDVLAEECAKRPDRFLAFAALPLQDPDAATEELQRCVNDLGFVGALVNGFSQEGDGQTPLYYDLPQYRPFWGEVEKLDVPFYLHPRNPLPQDSRIYDGHPWLLGPTWAFAQETAVHALRLMASGLFDEHPRLNIILGHMGEGLPYMMWRIDHRVAWVKLPPRYPAKRRFMDYFNENFHITTSGNFRTQTLIDAILEIGADRILFSTDWPFENIDHASDWFNATSIAEADRVKIGRTNARRLFKLDGA
modifications: Dicamba decarboxylase variant clone DC.4.032
For the molecule B3, the “Average Activity (Fold of SEQ ID NO: 109)” value under setting [1] is reported as 2.1 Fold of SEQ ID NO: 109.

B4: L240D: point mutation L240D of SEQ ID NO:109 (protein)
chain: MAQGKVALEEHFAIPETLQDSAGFVPGDYWKELQHRLLDIQDTRLKLMDAHGIETMILSLNAPAVQAIPDRRKAIEIARRANDVLAEECAKRPDRFLAFAALPLQDPDAATEELQRCVNDLGFVGALVNGFSQEGDGQTPLYYDLPQYRPFWGEVEKLDVPFYLHPRNPLPQDSRIYDGHPWLLGPTWAFAQETAVHALRLMASGLFDEHPRLNIILGHMGEGLPYMMWRIDHRVAWVKDPPRYPAKRRFMDYFNENFHITTSGNFRTQTLIDAILEIGADRILFSTDWPFENIDHASDWFNATSIAEADRVKIGRTNARRLFKLDGA
modifications: Dicamba decarboxylase variant clone DC.4.032
Regarding B4, under setting [1], the “Average Activity (Fold of SEQ ID NO: 109)” value is on record as 2.2 Fold of SEQ ID NO: 109.

B5: P63V: point mutation P63V of SEQ ID NO:109 (protein)
chain: MAQGKVALEEHFAIPETLQDSAGFVPGDYWKELQHRLLDIQDTRLKLMDAHGIETMILSLNAVAVQAIPDRRKAIEIARRANDVLAEECAKRPDRFLAFAALPLQDPDAATEELQRCVNDLGFVGALVNGFSQEGDGQTPLYYDLPQYRPFWGEVEKLDVPFYLHPRNPLPQDSRIYDGHPWLLGPTWAFAQETAVHALRLMASGLFDEHPRLNIILGHMGEGLPYMMWRIDHRVAWVKLPPRYPAKRRFMDYFNENFHITTSGNFRTQTLIDAILEIGADRILFSTDWPFENIDHASDWFNATSIAEADRVKIGRTNARRLFKLDGA
modifications: Dicamba decarboxylase variant clone DC.4.032
Turning to B5, under setting [1], the “Average Activity (Fold of SEQ ID NO: 109)” value is 1.8 Fold of SEQ ID NO: 109.

B6: N61S: point mutation N61S of SEQ ID NO:109 (protein)
chain: MAQGKVALEEHFAIPETLQDSAGFVPGDYWKELQHRLLDIQDTRLKLMDAHGIETMILSLSAPAVQAIPDRRKAIEIARRANDVLAEECAKRPDRFLAFAALPLQDPDAATEELQRCVNDLGFVGALVNGFSQEGDGQTPLYYDLPQYRPFWGEVEKLDVPFYLHPRNPLPQDSRIYDGHPWLLGPTWAFAQETAVHALRLMASGLFDEHPRLNIILGHMGEGLPYMMWRIDHRVAWVKLPPRYPAKRRFMDYFNENFHITTSGNFRTQTLIDAILEIGADRILFSTDWPFENIDHASDWFNATSIAEADRVKIGRTNARRLFKLDGA
modifications: Dicamba decarboxylase variant clone DC.4.032
Regarding B6, the “Average Activity (Fold of SEQ ID NO: 109)” value under setting [1] is reported as 2.5 Fold of SEQ ID NO: 109 and the “Average Activity (Fold of SEQ ID NO: 109)” value under setting [2] is given as 2.5 Fold of SEQ ID NO: 109.

B7: V235I: point mutation V235I of SEQ ID NO:109 (protein)
chain: MAQGKVALEEHFAIPETLQDSAGFVPGDYWKELQHRLLDIQDTRLKLMDAHGIETMILSLNAPAVQAIPDRRKAIEIARRANDVLAEECAKRPDRFLAFAALPLQDPDAATEELQRCVNDLGFVGALVNGFSQEGDGQTPLYYDLPQYRPFWGEVEKLDVPFYLHPRNPLPQDSRIYDGHPWLLGPTWAFAQETAVHALRLMASGLFDEHPRLNIILGHMGEGLPYMMWRIDHRIAWVKLPPRYPAKRRFMDYFNENFHITTSGNFRTQTLIDAILEIGADRILFSTDWPFENIDHASDWFNATSIAEADRVKIGRTNARRLFKLDGA
modifications: Dicamba decarboxylase variant clone DC.4.032
Turning to B7, the “Average Activity (Fold of SEQ ID NO: 109)” value is reported as 1.8 Fold of SEQ ID NO: 109 under setting [1] and 1.8 Fold of SEQ ID NO: 109 under setting [2].

B8: L240A: point mutation L240A of SEQ ID NO:109 (protein)
chain: MAQGKVALEEHFAIPETLQDSAGFVPGDYWKELQHRLLDIQDTRLKLMDAHGIETMILSLNAPAVQAIPDRRKAIEIARRANDVLAEECAKRPDRFLAFAALPLQDPDAATEELQRCVNDLGFVGALVNGFSQEGDGQTPLYYDLPQYRPFWGEVEKLDVPFYLHPRNPLPQDSRIYDGHPWLLGPTWAFAQETAVHALRLMASGLFDEHPRLNIILGHMGEGLPYMMWRIDHRVAWVKAPPRYPAKRRFMDYFNENFHITTSGNFRTQTLIDAILEIGADRILFSTDWPFENIDHASDWFNATSIAEADRVKIGRTNARRLFKLDGA
modifications: Dicamba decarboxylase variant clone DC.4.032
Take B8: under setting [1], the “Average Activity (Fold of SEQ ID NO: 109)” value is 2.3 Fold of SEQ ID NO: 109.

B9: N214Q: point mutation N214Q of SEQ ID NO:109 (protein)
chain: MAQGKVALEEHFAIPETLQDSAGFVPGDYWKELQHRLLDIQDTRLKLMDAHGIETMILSLNAPAVQAIPDRRKAIEIARRANDVLAEECAKRPDRFLAFAALPLQDPDAATEELQRCVNDLGFVGALVNGFSQEGDGQTPLYYDLPQYRPFWGEVEKLDVPFYLHPRNPLPQDSRIYDGHPWLLGPTWAFAQETAVHALRLMASGLFDEHPRLQIILGHMGEGLPYMMWRIDHRVAWVKLPPRYPAKRRFMDYFNENFHITTSGNFRTQTLIDAILEIGADRILFSTDWPFENIDHASDWFNATSIAEADRVKIGRTNARRLFKLDGA
modifications: Dicamba decarboxylase variant clone DC.4.032
Regarding B9, the “Average Activity (Fold of SEQ ID NO: 109)” value is 1.8 Fold of SEQ ID NO: 109 under setting [1] and 1.8 Fold of SEQ ID NO: 109 under setting [2].
